Experimental data reported in patent publication US20040067882A1 (published 2004).

Target: the molecule itself
Experiment: self-association, non-reducing western blot

B1: CG57094-02 purified protein (angiopoietin-related protein, ARP, mature region; CHO-K1 stable cell expression, plasmid 1614) (ligand)
chain: GPVQSKSPRFASWDEMNVLAHGLLQLGQGLREHAERTRSQLSALERRLSACGSACQGTEGSTDLPLAPESRVDPEVLHSLQTQLKAQNSRIQQLFHKVAQQQRHLEKQHLRIQHLQSQFGLLDHKHLDHEVAKPARRKRLPEMAQPVDPAHNVSRLHRLPRDCQELFQVGERQSGLFEIQPQGSPPFLVNCKMTSDGGWTVIQRRHDGSVDFNRPWEAYKAGFGDPHGEFWLGLEKVHSITGDRNSRLAVQLRDWDGNAELLQFSVHLGGEDTAYSLQLTAPVAGQLGATTVPPSGLSVPFSTWDQDHDLRRDKNCAKSLSGGWWFGTCSHSNLNGQYFRSIPQQRQKLKKGIFWKTWRGRYYPLQATTMLIQPMAAEAAS
notes: also called NOV25s; CG57094 variant 02; not shown: C-terminal V5 and His tags from the pEE14.4 Sec vector
B1: binds.
